Two molecules from publication PMC9549148, “Validation of the binding stoichiometry between HCN channels and their neuronal regulator TRIP8b by single molecule measurements” (Frontiers in Physiology, 2022) can be followed below.

Data set [1] deals with rabbit HCN4 carrying an internal deletion (from residues 783 to 1064) (rabbit) (UniProt Q9TV66). Kind of data set: mass photometry; Refeyn OneMP; SEC peak fractions of the co-purified HCN4 - EGFP-TRIP8b complex in LMNG-CHS, 1 μL at 200 nM added to 10 μL buffer at room temperature, 60 s recording; no cAMP.
Data set [2] concerns the molecule itself. The data set is described as follows: mass photometry; Refeyn OneMP; the same co-purified HCN4 - EGFP-TRIP8b complex with 2 mM cAMP added prior to mass photometry.

In data set [1], “EGFP-tagged TRIP8b (1a), full-length mouse TRIP8b (splice variant 1a4) (from UniProt Q8C437 1-567) (natural protein)” showed a stoichiometry N (TRIP8b per tetrameric HCN4) of 4.

B1: rabbit HCN4 carrying an internal deletion (from residues 783 to 1064) (natural protein, UniProt Q9TV66 1-1175, looked up)
chain: MDKLPPSMRKRLYSLPQQVGAKAWIMDEEEDAEEEGAGGRQDPRRRSIRLRPLPSPSPSPSAAAAAAGGAESRGAALGGAADGEGPARGAAKSSTNGDCRRFRGSLASLGSRGGGGGGGSTGGGSHGHLHDSAEERRLIAEGDASPGEDRTPPGLAAEPERPGAPAPPAASPPQVPSSCGEQRPADAAVKVEGGAAAGDQILPEAEARLGQAGFMQRQFGAMLQPGVNKFSLRMFGSQKAVEREQERVKSAGFWIIHPYSDFRFYWDLTMLLLMVGNLIIIPVGITFFKDENTTPWIVFNVVSDTFFLIDLVLNFRTGIVVEDNTDIILDPRRIKMKYLKSWFVVDFVSSIPVDYIFLIVETRIDSEVYKTARALRIVRFTKILSLLRLLRLSRLIRYIHQWEEIFHMTYDLASAVVRIVNLIGMMLLLCHWDGCLQFLVPMLQDFPDDCWVSLNNMVNNSWGKQYSYALFKAMSHMLCIGYGRQAPMGMSDVWLTMLSMIVGATCYAMFIGHATALIQSLDSSRRQYQEKYKQVEQYMSFHKLPPDTRQRIHDYYEHRYQGKMFDEESILGELSEPLREEIINFNCRKLVASMPLFANADPNFVTSMLTKLRFEVFQPGDYIIREGTIGKKMYFIQHGVVSVLTKGNKETKLADGSYFGEICLLTRGRRTASVRADTYCRLYSLSVDNFNEVLEEYPMMRRAFETVALDRLDRIGKKNSILLHKVQHDLSSGVSNYQENAIVQRIVQHDREMAHCARRAQATTPVAPAIWTPLIQAPLQAAQDLKLISASQPALPQDGAQTLRRASPHSSSGESVAALPPFPRAPGRPPGAGPGQHVTLTLPRKASSGSLPPPLSLFGPRAAPAGGPRLTAAPQREPGAKSEPVRSKLPSNL
notes: the extreme C-terminal SNL tripeptide is preserved; expected MW of the monomer 98.4 kDa; Cloned into the pCI vector; no tag is stated for HCN4; also called HCN4ΔC; modified HCN4 channels; source: HEK293-F, transiently co-transfected with TRIP8b; solubilised in detergent (LMNG-CHS), purified in complex with TRIP8b (Ni2+-NTA, Superose 6 SEC)
Take B1: the stoichiometry N (as a rule, the number of molecules, sites or subunits per partner or assembly) in data set [2] was 4.
